The data set can be described thus: yeast display, Sf9 membrane polyspecificity reagent, FACS + sequencing; frameworks hold sequencing errors. Put shortly:
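A nanobody's polyreactivity label depends on the gate it was sorted from. Yeast display cells were stained with 10% biotinylated, detergent-solubilized Sf9 membrane reagent for 1 hour at 4 °C, enriched on streptavidin microbeads and sorted by FACS. The low and high (top ~1%) gates were set on anti-HA fluorescence for expression and streptavidin fluorescence for reagent binding.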
Turning to “QVQLVESGGGLVQAGGSLRLSCAASGRTFTLYAMGWYRQAPGKERELVAAIRWSGSSTYYADSVKGRFTISRDNAKNTVYLQMNSLKPEDTAVYYCAADRAYRRFSQGAYSPWILKYGYWGQGTQVTVSS”, the “polyreactivity (PSR sort gate)” value is listed as “high polyreactivity”. On to “QVQLVESGGSLVQAGGSLRLSCAASGYTIDSYGMGWYRQAPGKERELVAPIDWSGGSTYYADSVKGRFTIARDTAKNTVYLQKNSLIPDDSAVYYCNRDSAGPGDVILAYTGNDYWGQGTQVTVSS”, for which the “polyreactivity (PSR sort gate)” value is given as “low polyreactivity”. For the sequence “QVQLQESGGGLVQAGGSLRLSCAASGPISRRSNMGWYRQSPGKESELVTAITRGTNTNYADSVKGRFTISRDNAKYTEYLQMNSLNPEDTAVYYCADYGVLKPSRGDAVFNRYWGQGTQVTVSS”, the “polyreactivity (PSR sort gate)” value is “low polyreactivity”.

“QVQLVESGGGLVQAGGSLRLSCAASVITLFGYTMGWYRQAPGKERELVAAIRRRGVSTYYADSVKGRFTISRDNAKNTVYLQMNSLKPEDTAVYYCAKSLKPYTDYDYWGQGTQVTVSS”: the “polyreactivity (PSR sort gate)” value is given as “high polyreactivity”. “QVQLVESGGGLVQAGGSLRLSCAASGNTFSYYAMGWYRQAPGKEREFVAAIRKSGASTYYADSVKGRFTISRDNAKNTVYLQMNSLKPEDTAVYYCAADGQVSYALGFDYWGQGTQVTVSS”: the “polyreactivity (PSR sort gate)” value is given as “high polyreactivity”.

Turning to “QVQLVESGGGLVQAGASLRLSCAASGRTFETNAMGWYSQAPGKEREFVASINWSGGSTYYSDSVKGRFTISRDNAKNTVYLQMNSLKPEDTAVYYCAADHSYWDWWSYYYWGQGTQVTVSS”, the “polyreactivity (PSR sort gate)” value is on record as “low polyreactivity”. For the sequence “QVHLVESGGGLVQAGGSLRLSCAASGRIFSNNAMGWYRQAPGKERELVATITGSGGRTYYADSVKGRFTISRDNAKNTVYLQMNSLKPEDTAVYYCAAVKRPDYYYWGQGTQVTVSS”, the “polyreactivity (PSR sort gate)” value was “high polyreactivity”.

For “QVQLVESGGGIVQAGVSLRLSCAASGSTFWDNDMGWYRPAPGKERELVAVISWDDGSTYYADSVKGRFTISRDNAKNTVYLQMNSLKPEDTAVYYCAADAYYALFPSWTVGDCPYYYWGQGTQVTVSS”, the “polyreactivity (PSR sort gate)” value is “high polyreactivity”. On to “QVQLVESGGGLVQAGGSLRLICAASGSTFNYNAMGWYRQAPGKERELVAAISSSGGSTYYADSVKGRFTISRDNAKYTVYLQMNSLKREDTAVYYCAASGGYGQYNYWGQGTQVTVSS”, for which the “polyreactivity (PSR sort gate)” value is recorded as “low polyreactivity”.

With “QVQLVESGGGLVQAGGSLRLSCAASGSTLVTYAMGWSRQAPGTERELVAAISYSGGSTYADSVKGRFTISRDNAKNTVYLQMNSLKPEDTAVYYCNSDTSVDVRFDYWGQGTQVTVSS”, the “polyreactivity (PSR sort gate)” value is given as “low polyreactivity”.

With “QVQLVESGVGLVQAGGSLRLRCAASGFTFRYYAMGWNRQAPGKERELVATMSSAGTTNYADSVKGRFTISRDNAKNTVYLPMNSLKPEDTAVYYCAKDLYYRHWRGGFWGQGTQVTVSS”, the “polyreactivity (PSR sort gate)” value was “low polyreactivity”. As to “QVQLVESGGGLVQAGGSLRLSCAASGNIFPDYAMGWYRQAPGKERELVAAISSSGSSTYYADSVKGRFTISRDNAKNTVYLQMNSLKKEDTAVYYCATRVYLPTFYIRDTQYYYWGQGTQVTVSS”, the “polyreactivity (PSR sort gate)” value is listed as “low polyreactivity”.

Consider “QVQLVESGGALVQAGGSLRLSCAASGSTVKYYAMGWYRQAPGKERELVATSSSGGSTNYADSVKRRFTISRDNAKNTVYLQRNSLKPEDTAVYYCAAYSTWRRIQFWGYNYWGQGTQVTVSS”, for which the “polyreactivity (PSR sort gate)” value was “high polyreactivity”. Consider “QVQLVESGGGLVQAGGSLRLSCAASGGIFWNYAMGWYRQAPGKERELVAVINTGGRTYYADSVKGRFTISRDNAKYTVYLQMNSLKPEDTAVYYCAAKDFTIHYDYWGQGTQVTVSS”, for which the “polyreactivity (PSR sort gate)” value is “high polyreactivity”. Take “QVQLVESGGGLVQAGGSLRLSFAASGNIFVYYAMGWYRQAPGKVRELVAAISFRGGTTYYADSVKGRFTISRDNAKNTVYLQMNSLKPEDTAVYYCAARTMPRVSRKTFGYWGQGTQVTVSS”: the “polyreactivity (PSR sort gate)” value is recorded as “low polyreactivity”. For “QVQLVESGGGLVQAGGSLRLSCAASGSTFRIYAMGWYRQAPGKDRELVAGITRRGGSTFYADSVKGRFTISRDNANNTVYLQMNSLKPEDTAVYYCAARFRGGMDYWGQGTQVTVSS”, the “polyreactivity (PSR sort gate)” value is listed as “high polyreactivity”. In the case of “QVQLVESGGVLDQARGSLRLSCAASGRIFGYNAMGWYRQAPGKERELVAAISWGGGRTYYADSVKGRFTISRDNAKNTVYLQMNSLKPEDTAVYYCNALYVGYYDSMGYWGQGTQVTVSS”, the “polyreactivity (PSR sort gate)” value is reported as “high polyreactivity”. The value for “QVQLVESGGGLVQAGGSLRLSCAASGFIFYDYAMGWYRQAPGKERELVAVITSGGSTYYADSVKGRFTISRDNAKNTVYLQMNSLKPEDTAVYYCNADWVFTWYDYPNDTYDYWGQGTQVTVSS” was “low polyreactivity”. For “QEQLVESGGGLDQAGGSLRLSCAASGSTFSGYALAWYRQAPGKERELVAAISWRGVRTYYADSVKGRFSISRDNAKNRVYLQMNSLKPEDNAVYYCAAVGYITKEFYWGQGTKVTVSS”, the “polyreactivity (PSR sort gate)” value is on record as “high polyreactivity”. As for “QVQLVESGGGLVQPGGSLRLSCAASGSTFWLYAMGWYRQAPGQERELVAAISARTGSTYYADSVKGRFTISRDNAKNTVYLQMNSLKPEDTAVYYCNVRYRGTPYGYWGQGTQVTVSS”, the “polyreactivity (PSR sort gate)” value is “low polyreactivity”.

With “QVQLVESGGGLVQAGGSLRLICAASGFTFSINTRGWYRQAPGKEREFVAGISRSGGSTYYADSVKGRFTISRDNAKNTVYLQMNSLKPEDTAVYYCNADRYSWYTPLGYDYWGQGTQVNVSS”, the “polyreactivity (PSR sort gate)” value is given as “high polyreactivity”. For the sequence “QVQLVESGGGLVQAGGSLRLSCAASGLTFVYYAMGWYRQAPGKERELVASIDYSGSSTYYADSVKGRFTISRDNSKNTVYLQMNSLKPEDTAVYYCAATDSGEYWGQGTQVTVSS”, the “polyreactivity (PSR sort gate)” value is reported as “low polyreactivity”. As to “QVQLVESGGGLVQAGGSLRLSCAASGRTIRLYAMGWYRQAPGQERELVAAITRGGRTNYADSVKGRFTISRDNAKNTVYLQMNSLKPEDTAVYYCAARYVERHTDYYYWGQGTQVTVSS”, the “polyreactivity (PSR sort gate)” value was “low polyreactivity”.

“QVQLVESGGGLVQAGGSLRLSCAASGFTFWYYAMGWYRQAPGKERELVATITSGGRTSYADSVKGRFTISRDNAKNTVYLQMNSLKPEDTAVYYCAAVARYTPGYGYWGQGTQVTVSS”: the “polyreactivity (PSR sort gate)” value is “high polyreactivity”. As for “QVQLVESGGGLVQAGGSLRLSCAASGFTFLYYAMGWYRHAPGKERELVAAITTGSSTNYADSVKGRFTISRDNAKNTVYLQMNSLKPEDTAVYYCAAEYYYRVWYGHYYEYDYWGQGTQVTVSS”, the “polyreactivity (PSR sort gate)” value is “high polyreactivity”. Take “QVQLVESGGGLVQAGGSLRLSCAASGSIFGLYAMGWYRQAPGKERELVAAISTSSGRTYYADSVKGRFTISRDNAKNTVYLQMNSLKPEDTAVYYCNARVYVTSGFRYDYWGQGTQVTVSS”: the “polyreactivity (PSR sort gate)” value is reported as “high polyreactivity”. For “QVQLVESGGGLVQAGGSLRLSCAASGFIFASYTMGWYRQAPGKERELVASISRDGGRTSYADSVKGRFTISRDNAKNTVYLQMNSLKPEDTAVYYCAARYWLRSEYWGQGTQVTVSS”, the “polyreactivity (PSR sort gate)” value is “high polyreactivity”.

As to “QVQLVESGGGLVQAGGSLRLSCAASGIICYENTMGWYRQAPGKERELVAAINSGGSTYYADSVKGRFTISRDNAKNTVYLQMNSLKPEDTAVYYCAADDYSGLYYSSTYRYEYWGQGTQVTVSS”, the “polyreactivity (PSR sort gate)” value is listed as “low polyreactivity”. The value for “QVQLVESGGALVQAGGSLRLSCAASGIILLRYAMGWYRQAPGKERELVAAISYSGGSTYYADSVKGRFTISRDNAKNTVYLQMNSLKPEDTAVYYCNTVGPRRYSYDYWGQGTQVTVSS” was “high polyreactivity”; that for “QVQLVESGGGLVQAGGSLRLSCAASGRTFFIYAMGWYRQAPGKERELVAAIRWRGGSTYYADSVKGRFTISRDNAKNTVYLLMNSLKPEDTAVYYCAASTRQARYEDYYWGQGTQVTVSS” was “high polyreactivity”.

For the origin of these results see the nanobody polyreactivity screen of Harvey et al. (2022).
